Results as given in patent US20240287161A1 (NATIONAL UNIVERSITY CORPORATION TOTTORI UNIVERSITY, published 2024).

How the values were obtained:
[1] = molecular target: T1, MERS-CoV trimeric S protein (amino acids 13-1296) with T4 foldon, histidine tag and strep-tag (MERS-CoV, UniProt K9N5Q8 16-1293); assay: ELISA on coated S-trimeric antigen, anti-human IgG-HRP [Human IgG1, NT-108]
[2] = molecular target: T1, MERS-CoV trimeric S protein (amino …); assay: ELISA on coated S-trimeric antigen, anti-human IgG-HRP [Human IgG1, NT-193]
[3] = molecular target: T1, MERS-CoV trimeric S protein (amino …); assay: ELISA on coated S-trimeric antigen, anti-human IgG-HRP [Human IgG3, NT-193]

B1: NT-108 (recombinant human IgG1/kappa antibody) (antibody, V domains shown)
VH: EVQLQQSGPGLVKPSQTLSLTCSISGDSVSSNSAAWNWIRQSPSRGLEWLGRTYYRSKWYNDYAGTVKSRIAINPDTSKNQFSLHLNSVTPEDTAVYFCARVISVAGYAFDIWGQGTMVTVSS
VL: EIVLTQSPGTLSLSPGERATLSCRASQSVSSTFLAWYQQKPGQAPRLLIYGASYMATGIPDRFSGSGSGTDFTLTISRLEPEDFAVYYCQQYGSSLTFGGGTKLEIK
binding result [1]: no binding (tested: 1000 ng/ml)

B2: NT-193 (recombinant human IgG1/kappa antibody) (antibody, V domains shown)
VH: EVQLQQWGAGLLKPSETLSLTCAVYGGSFSGYYWSWIRQPPGKGLEWIGEINHSGSTNYNPSLKSRVTISVDTSKNQFSLKLSSVTAADTAVYYCARGWDLDYYYGMDVWGQGTTVTVSS
VL: DIRMTQSPSAMSASVGDRVTVTCRASQGIGNYLAWFQLKPGKVPKRLIYAASSLQSGVPARFSGGGSGTEFTLTISSLQPEDFATYYCLQHGFLPWTFGQGTKLEIK
binding result [2]: no binding (tested: 1000 ng/ml)

B3: NT-193, human IgG3 subclass (antibody, V domains shown)
VH: EVQLQQWGAGLLKPSETLSLTCAVYGGSFSGYYWSWIRQPPGKGLEWIGEINHSGSTNYNPSLKSRVTISVDTSKNQFSLKLSSVTAADTAVYYCARGWDLDYYYGMDVWGQGTTVTVSS
VL: DIRMTQSPSAMSASVGDRVTVTCRASQGIGNYLAWFQLKPGKVPKRLIYAASSLQSGVPARFSGGGSGTEFTLTISSLQPEDFATYYCLQHGFLPWTFGQGTKLEIK
binding result [3]: no binding (tested: 1000 ng/ml)
